Molecular target: N-type (CaV2.2) Ca2+ channel (α1B with β2a and α2δ) in HEK293 cells (human; rat), Q00975
Experiment: cell-based or functional assay

N-type (CaV2.2) Ca2+ channel (α1B with β2a and α2δ) in HEK293 cells (human; rat), Q00975, sequence (P54290 25-1091, stated change not applied, chain 3 of 2, other chains not shown): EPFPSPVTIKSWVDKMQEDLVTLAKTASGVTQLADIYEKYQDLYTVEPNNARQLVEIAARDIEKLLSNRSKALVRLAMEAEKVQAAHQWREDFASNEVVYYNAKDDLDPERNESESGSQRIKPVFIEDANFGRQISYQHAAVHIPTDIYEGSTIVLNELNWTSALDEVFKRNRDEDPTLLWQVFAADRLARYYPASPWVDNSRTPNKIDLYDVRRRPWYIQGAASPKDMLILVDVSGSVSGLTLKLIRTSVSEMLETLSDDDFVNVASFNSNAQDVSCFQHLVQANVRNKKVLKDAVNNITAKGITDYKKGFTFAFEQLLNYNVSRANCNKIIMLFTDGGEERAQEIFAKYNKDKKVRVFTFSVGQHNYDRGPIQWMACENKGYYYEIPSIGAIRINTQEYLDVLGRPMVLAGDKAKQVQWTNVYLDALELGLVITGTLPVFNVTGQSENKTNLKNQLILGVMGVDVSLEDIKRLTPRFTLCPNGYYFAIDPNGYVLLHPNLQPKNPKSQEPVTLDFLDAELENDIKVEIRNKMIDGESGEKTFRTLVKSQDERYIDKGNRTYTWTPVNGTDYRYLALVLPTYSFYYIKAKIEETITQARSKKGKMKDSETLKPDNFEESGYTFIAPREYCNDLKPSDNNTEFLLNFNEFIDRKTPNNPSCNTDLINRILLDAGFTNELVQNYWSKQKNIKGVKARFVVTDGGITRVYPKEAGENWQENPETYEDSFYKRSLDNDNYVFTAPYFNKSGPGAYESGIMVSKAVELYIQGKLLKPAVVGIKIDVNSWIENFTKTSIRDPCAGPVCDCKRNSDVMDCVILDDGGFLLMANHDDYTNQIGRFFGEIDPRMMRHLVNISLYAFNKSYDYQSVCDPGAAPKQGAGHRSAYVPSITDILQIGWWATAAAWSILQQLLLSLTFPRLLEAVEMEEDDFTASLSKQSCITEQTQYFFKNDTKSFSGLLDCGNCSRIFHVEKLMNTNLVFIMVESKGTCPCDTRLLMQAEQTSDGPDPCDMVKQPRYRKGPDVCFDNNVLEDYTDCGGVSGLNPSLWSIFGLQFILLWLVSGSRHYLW

B1: free NTB peptide (residues 1-95, without CFP fusion) (peptide)
peptide: MVRFGDELGGRYGGPGGGERARGGGAGGAGGPGPGGLQPGQRVLYKQSIAQRARTMALYNPIPVKQNCFTVNRSLFVFSEDNVVRKYAKRITEWP
- DF, degree of prepulse facilitation, free NTB with Gβγ: 4
- conversion to constitutively reluctant channels, free NTB with Gβγ: 75%

From patent US20080279864A1
